Assay results reported in the MegaScale stability set (Tsuboyama et al. 2023).

B1: 5KPH (parent)
chain: EEKRQVKQVAKEKLLEQSPNSKVQVRRVQKQGNTIRVELELRTNGKKENYTVEVERQGNTWTVKRITRT

Variants of: B1
Assay: folding stability dG (cDNA display proteolysis); higher = more stable
Conditions: PBS, room temperature

Going from T51F to T51C, the “folding stability dG” value falls from 3.66 kcal/mol to 3.59 kcal/mol.

First: V28Y
Second: V28I
The “folding stability dG” value of the first is higher: 4.35 kcal/mol for the first, 3.99 kcal/mol for the second.

Going from V28M to V28G, the “folding stability dG” value falls from 4.12 kcal/mol to 1.87 kcal/mol.

Going from V28K to N20E, the “folding stability dG” value rises from 1.74 kcal/mol to 3.53 kcal/mol.

First: N20G
Second: N20L
The “folding stability dG” value of the first is higher: 4.21 kcal/mol for the first, 3.6 kcal/mol for the second.

Going from N20W to N20C, the “folding stability dG” value rises from 2.38 kcal/mol to 3.53 kcal/mol.

Compared with N20S, T34S is lower in “folding stability dG” value: 3.81 kcal/mol for the first, 3.59 kcal/mol for the second.

Going from T34E to T34C, the “folding stability dG” value rises from 2.99 kcal/mol to 3.48 kcal/mol.

Going from T34I to T34G, the “folding stability dG” value falls from 3.97 kcal/mol to 3.44 kcal/mol.

First: K64I
Second: K64F
The “folding stability dG” value of the first is higher: 4.47 kcal/mol for the first, 3.7 kcal/mol for the second.

Going from K64G to K64L, the “folding stability dG” value rises from 3.25 kcal/mol to 4.27 kcal/mol.

First: A10Y
Second: A10I
The “folding stability dG” value of the first is lower: 1.96 kcal/mol for the first, 4.24 kcal/mol for the second.

Going from A10G to A10L, the “folding stability dG” value rises from 2.6 kcal/mol to 3.55 kcal/mol.

Compared with N44S, N44V is lower in “folding stability dG” value: 3.76 kcal/mol for the first, 3.47 kcal/mol for the second.

First: N44W
Second: K46P
The “folding stability dG” value of the first is higher: 3.67 kcal/mol for the first, 2.63 kcal/mol for the second.

Going from K46S to K46C, the “folding stability dG” value falls from 3.73 kcal/mol to 3.6 kcal/mol.

Going from K46G to K13A, the “folding stability dG” value rises from 3.49 kcal/mol to 4.53 kcal/mol.

Compared with K13V, E1A is lower in “folding stability dG” value: 4.12 kcal/mol for the first, 3.75 kcal/mol for the second.

Compared with E1F, E1S is higher in “folding stability dG” value: 3 kcal/mol for the first, 3.56 kcal/mol for the second.

First: E1Q
Second: Q31F
The “folding stability dG” value of the first is lower: 3.64 kcal/mol for the first, 4.21 kcal/mol for the second.

Going from Q31R to Q31G, the “folding stability dG” value falls from 4.05 kcal/mol to 3.13 kcal/mol.

First: Q31C
Second: Q24S
The “folding stability dG” value of the first is lower: 3.92 kcal/mol for the first, 4.13 kcal/mol for the second.

First: Q24Y
Second: Q24D
The “folding stability dG” value of the first is higher: 4.48 kcal/mol for the first, 3.53 kcal/mol for the second.

Compared with Q24E, Q24C is higher in “folding stability dG” value: 3.67 kcal/mol for the first, 3.83 kcal/mol for the second.

First: K11W
Second: E48D
The “folding stability dG” value of the first is lower: 3.24 kcal/mol for the first, 3.35 kcal/mol for the second.

Going from E48Y to E48S, the “folding stability dG” value falls from 3.75 kcal/mol to 3.57 kcal/mol.

Compared with E48I, E48W is higher in “folding stability dG” value: 3.52 kcal/mol for the first, 3.87 kcal/mol for the second.

Compared with E48G, L14R is lower in “folding stability dG” value: 2.67 kcal/mol for the first, 2.08 kcal/mol for the second.

First: L14Y
Second: L14F
The “folding stability dG” value of the first is lower: 1.95 kcal/mol for the first, 2.92 kcal/mol for the second.

First: L14D
Second: L14K
The “folding stability dG” value of the first is lower: 1.74 kcal/mol for the first, 2.18 kcal/mol for the second.

Compared with L14T, I66Y is higher in “folding stability dG” value: 2.26 kcal/mol for the first, 2.85 kcal/mol for the second.

First: I66V
Second: I66P
The “folding stability dG” value of the first is higher: 3.94 kcal/mol for the first, 1.72 kcal/mol for the second.

First: I66D
Second: E38A
The “folding stability dG” value of the first is lower: 0.142 kcal/mol for the first, 3.62 kcal/mol for the second.

First: E38T
Second: E38P
The “folding stability dG” value of the first is higher: 3.99 kcal/mol for the first, 1.08 kcal/mol for the second.

First: E38I
Second: R65T
The “folding stability dG” value of the first is higher: 4.1 kcal/mol for the first, 4.05 kcal/mol for the second.

Compared with R65V, R65A is higher in “folding stability dG” value: 3.54 kcal/mol for the first, 4.27 kcal/mol for the second.

First: R65S
Second: R65P
The “folding stability dG” value of the first is higher: 4.29 kcal/mol for the first, 1.4 kcal/mol for the second.

First: Q17F
Second: Q17W
The “folding stability dG” value of the first is higher: 4.12 kcal/mol for the first, 3.6 kcal/mol for the second.

Compared with Q17N, Q17R is higher in “folding stability dG” value: 3.69 kcal/mol for the first, 3.92 kcal/mol for the second.

Going from Q17A to Q17L, the “folding stability dG” value rises from 3.68 kcal/mol to 4.54 kcal/mol.

Going from R36D to R36N, the “folding stability dG” value rises from 2.45 kcal/mol to 3.7 kcal/mol.

Going from R36V to R36P, the “folding stability dG” value falls from 4.13 kcal/mol to 0.344 kcal/mol.

Compared with R36L, R36I is higher in “folding stability dG” value: 4.33 kcal/mol for the first, 4.34 kcal/mol for the second.

Compared with Q8E, Q8N is lower in “folding stability dG” value: 3.74 kcal/mol for the first, 3.57 kcal/mol for the second.

Going from Q8H to Q8Y, the “folding stability dG” value falls from 3.62 kcal/mol to 2.78 kcal/mol.

Going from Q8S to Q8M, the “folding stability dG” value rises from 3.55 kcal/mol to 3.59 kcal/mol.

Compared with E53P, E53Q is higher in “folding stability dG” value: -0.812 kcal/mol for the first, 3.39 kcal/mol for the second.

Compared with E53W, E53M is lower in “folding stability dG” value: 4.23 kcal/mol for the first, 3.58 kcal/mol for the second.

Going from R26K to R26L, the “folding stability dG” value rises from 4 kcal/mol to 4.62 kcal/mol.

Going from R26W to R26N, the “folding stability dG” value rises from 3.49 kcal/mol to 3.51 kcal/mol.

First: R26M
Second: R26V
The “folding stability dG” value of the first is lower: 4.11 kcal/mol for the first, 4.16 kcal/mol for the second.

First: R26E
Second: R42I
The “folding stability dG” value of the first is lower: 2.58 kcal/mol for the first, 4.28 kcal/mol for the second.

Compared with R42D, R42A is lower in “folding stability dG” value: 4.2 kcal/mol for the first, 3.59 kcal/mol for the second.

Compared with R42P, R42F is higher in “folding stability dG” value: 1.28 kcal/mol for the first, 4.66 kcal/mol for the second.

Going from R42G to L41W, the “folding stability dG” value falls from 3.04 kcal/mol to 2.39 kcal/mol.

First: L41F
Second: L41P
The “folding stability dG” value of the first is higher: 2.69 kcal/mol for the first, 0.528 kcal/mol for the second.

Going from L41K to L41I, the “folding stability dG” value rises from 2.73 kcal/mol to 3.59 kcal/mol.

First: L41A
Second: L41H
The “folding stability dG” value of the first is higher: 3.63 kcal/mol for the first, 2.19 kcal/mol for the second.

Going from V37A to V37I, the “folding stability dG” value rises from 2.15 kcal/mol to 3.5 kcal/mol.

First: V37Q
Second: V37R
The “folding stability dG” value of the first is lower: -0.216 kcal/mol for the first, -0.176 kcal/mol for the second.

Going from V37L to V37Y, the “folding stability dG” value falls from 3.33 kcal/mol to 2.32 kcal/mol.

Going from P19H to P19M, the “folding stability dG” value falls from 2.92 kcal/mol to 2.71 kcal/mol.

First: P19K
Second: P19N
The “folding stability dG” value of the first is higher: 3.03 kcal/mol for the first, 2.57 kcal/mol for the second.

Going from P19E to P19T, the “folding stability dG” value rises from 2.5 kcal/mol to 2.69 kcal/mol.

First: V9I
Second: V9F
The “folding stability dG” value of the first is higher: 4.22 kcal/mol for the first, 3.82 kcal/mol for the second.

First: V9C
Second: V9P
The “folding stability dG” value of the first is higher: 3.28 kcal/mol for the first, 1.9 kcal/mol for the second.

Compared with V9A, V9M is higher in “folding stability dG” value: 3.39 kcal/mol for the first, 3.83 kcal/mol for the second.

Compared with V9W, V9E is lower in “folding stability dG” value: 2.74 kcal/mol for the first, 2.33 kcal/mol for the second.

First: T60C
Second: T60R
The “folding stability dG” value of the first is lower: 3.33 kcal/mol for the first, 3.97 kcal/mol for the second.

First: K3W
Second: K3N
The “folding stability dG” value of the first is higher: 4.88 kcal/mol for the first, 4.25 kcal/mol for the second.

Going from K3V to K3F, the “folding stability dG” value falls from 4.72 kcal/mol to 4.65 kcal/mol.

First: K3G
Second: K3S
The “folding stability dG” value of the first is lower: 3.73 kcal/mol for the first, 4.17 kcal/mol for the second.

Compared with G58P, G58K is higher in “folding stability dG” value: 2.25 kcal/mol for the first, 3.4 kcal/mol for the second.

First: G58A
Second: G58C
The “folding stability dG” value of the first is higher: 3.33 kcal/mol for the first, 3.16 kcal/mol for the second.

Going from G58W to G58R, the “folding stability dG” value falls from 3 kcal/mol to 2.97 kcal/mol.

First: K47W
Second: K47E
The “folding stability dG” value of the first is higher: 3.75 kcal/mol for the first, 3.13 kcal/mol for the second.

First: K47Q
Second: K47T
The “folding stability dG” value of the first is lower: 3.64 kcal/mol for the first, 4.05 kcal/mol for the second.

Compared with R68M, R68I is lower in “folding stability dG” value: 3.95 kcal/mol for the first, 3.67 kcal/mol for the second.

First: R68H
Second: R68D
The “folding stability dG” value of the first is higher: 3.59 kcal/mol for the first, 2.65 kcal/mol for the second.

Going from T62E to T62S, the “folding stability dG” value falls from 3.82 kcal/mol to 3.75 kcal/mol.

Going from T62P to T62C, the “folding stability dG” value rises from 1.79 kcal/mol to 3.48 kcal/mol.

Going from S21P to S21T, the “folding stability dG” value rises from 2.37 kcal/mol to 2.81 kcal/mol.

Compared with S21M, S21F is lower in “folding stability dG” value: 2.75 kcal/mol for the first, 2.65 kcal/mol for the second.

For S21Y, the “folding stability dG” value was 2.67 kcal/mol.
